The record followed here is FireProtDB (doi:10.1021/bi952930e).

The labels stand for the following.
B1: Ribonuclease, P00648 (parent)
chain: MMKMEGIALKKRLSWISVCLLVLVSAAGMLFSTAAKTETSSHKAHTEAQVINTFDGVADYLQTYHKLPDNYITKSEAQALGWVASKGNLADVAPGKSIGGDIFSNREGKLPGKSGRTWREADINYTSGFRNSDRILYSSDWLIYKTTDHYQTFTKIR

The variants in this data set derive from B1. Conditions: Bacillus amyloliquefaciens, pH 6.3, 25 °C, Urea, MES 100 mM, reversible: yes, structure 1BNI, whole UniProt chain shown.

Regarding R116K, where the note is “CD”, the “ddG of mutation (higher = less stable)” value was 3.13 kcal/mol, the denaturant m value was determined as 1.89 kcal/mol/M and the “denaturant midpoint (higher = more stable)” value (“denaturant midpoint” for short) was 2.94 M.
For the variant R116S, under “Fluorescence”, the “ddG of mutation (higher = less stable)” value was 2.72 kcal/mol, the denaturant m value stood at 1.86 kcal/mol/M and the “denaturant midpoint” value worked out at 3.16 M.
For R116M, in that order: 2.12 kcal/mol, 2.14 kcal/mol/M and 3.47 M.
In the same order, the values of R130K are 4.13 kcal/mol, 1.68 kcal/mol/M and 2.43 M.
R130Q: where the note is “Fluorescence”, the “ddG of mutation (higher = less stable)” value is 2.05 kcal/mol, the denaturant m value was 2.28 kcal/mol/M and the “denaturant midpoint” value worked out at 3.51 M.
Take D140N: where the note is “Fluorescence”, the “ddG of mutation (higher = less stable)” value turned out to be 4.11 kcal/mol, the denaturant m value was 1.99 kcal/mol/M and the “denaturant midpoint” value was determined as 2.44 M.
In the same order, the values of D122N are 4.8 kcal/mol, 1.69 kcal/mol/M and 2.08 M.
